Results from paper PMC3920545 (Journal of molecular biology, 2012).

Target: human Toll-like receptor 3 ectodomain (TLR3ecd) (Homo sapiens, UniProt O15455)
Assay: SPR

B1: Fab1068 (Fab, V domains shown)
VH: QVQLQQPGAELVQPGTSVRLSCKASGYIFTTYWIHWVKQRPGQGLEWIGEINPNNGRINYNEKFKTKATLTVDKSSSTAYMQLSSLTSEDSAVYYCTRVGVMITTFPYWGQGTLVTVSA
VL: DIQMTQSPASLSASVGETVTITCRASGNIHNYLAWYQQKQGKSPQLLVYNAKTLADGVPSRFSGSESGTQYSLKINSLQPEDFGSYYCQHFWSTPFTFGSGTKLELK
B1 gave a Kd of 0.0291 nM, a koff of 0.000103 s⁻¹ and a kon of 3.54e+06 M⁻¹ s⁻¹.
